Data from patent US9539338B2, “Polymer-based protein engineering methods to rationally tune enzyme activity, pH-dependence and stability” (Carnegie Mellon University, priority 2013, dated 2017).

What was measured:
[1] = Thermal stability at 37° C., pH 8.0; format: physicochemical; settings: 8 hours incubation at 40 μM, 0.1 M sodium phosphate pH 8.0, 37° C.
Protocol: Native CT and CT-conjugates (40 μM) were dissolved in 0.1 M sodium phosphate buffer (pH 8.0) and incubated in a water bath in 50 μL aliquots at 37° C. At specified time points, aliquots were removed and diluted to 4 μM using 0.1 M sodium phosphate buffer (pH 8.0). Residual activity, measured in 0.1 M sodium phosphate buffer (pH 8.0) at 25° C., was calculated as the ratio of activity remaining relative to the activity at time zero. Substrate (Suc-AAPF-pNA) concentration was kept constant at 288 μM for each sample and time point. Native CT and conjugate activities were measured in duplicate at each time point.

Suc-AAPF-pNA = molecular target: T1, Suc-AAPF-pNA (Bos taurus, UniProt P00766); test: Enzyme activity: hydrolysis of Suc-AAPF-pNA at pH 5-10 (native CT, chymotrypsin-pQA conjugates); format: biochemical; settings: 0.1 M phosphate buffer
T1 construct: purchased Sigma Aldrich; host or cells: bovine pancreas
Protocol: N-Succinyl-Ala-Ala-Pro-Phe p-nitroanilide (0 to 50 μL of 9.60 mM in DMSO) was added to sodium phosphate buffer (990 to 940 μL of 100 mM, pH 5-10). Native CT or conjugates solution (10 μL of 4.0 μM) was added to the substrate solution. The initial rate of hydrolysis of the peptide substrate was monitored by recording the increase in absorption at 412 nm using a UV-VIS spectrometer. The Michaelis-Menten parameters (kcat, KM and kcat/KM) were determined by non-linear curve fitting (using the well known Michaelis-Menten kinetics equation, V=Vmax[S]/KM+[S], […] where [E] is enzyme concentration, [S] is substrate concentration, and V is initial rate of the reaction) of plots of initial rate versus substrate concentration using the Enzfitter software.
Enzyme activity (kcat), specificity (KM), and productivity (kcat/KM) values were determined for each of the conjugates and native chymotrypsin at 25° C. in 0.1 M phosphate buffer (pH 5-10). Values were determined by monitoring the enzyme catalyzed hydrolysis of Suc-AAPF-pNA. Enzyme concentration for each of the reactions was 39 nM, with substrate concentrations ranging from 0-700 μM. The reaction was monitored for the first 30 seconds after mixing enzyme and substrate.

aprotinin (AP) = molecular target: T2, aprotinin (AP) (Bos taurus, UniProt P00974); test: Inhibitor binding study with aprotinin; format: biochemical, Bovine; settings: 25° C.; for Apparent Vmax / KM/Vmax: pH 8.0
T2 construct: purchased Sigma Aldrich; host or cells: Nicotiana (tobacco) for aprotinin; bovine pancreas for chymotrypsin
Protocol: Apparent KM and Vmax values were calculated using EnzFitter by Michelis-Menten curve fitting of substrate against initial velocity plots. (B) Secondary plots with calculated apparent KM and Vmax values were used to determine inhibition constants of aprotinin towards native chymotrypsin.
FIGS. 23A and B show (A) Substrate/initial velocity plots and (B) secondary plots to determine inhibitor constant for chymotrypsin-pQA200 with aprotinin in 0.1 M sodium phosphate buffer (pH 8) at 25° C. The procedure used was the same as described above for aprotinin and native chymotrypsin.
Enzyme inhibition was assayed by measuring the hydrolytic activities of samples which contained a fixed concentration of protease and varying amounts of inhibitor, including a blank with no inhibitor. Inhibitors and peptide substrate were simultaneously added to the native and conjugate solutions immediately before measuring initial rates. The initial rate of hydrolysis of the peptide substrate was monitored by recording the increase in absorption at 412 nm. To determine dissociation constant of the enzyme-inhibitor complexes (Ki), Vmax app and KM app were determined by non-linear curve fitting (equation for Michaelis-Menten parameters) of plots of initial rate versus substrate concentration using the Enzfitter software. The dissociation constants were calculated from secondary plot of KM app/Vmax app versus initial inhibitor concentration.

[2] = In vitro gastric acid stability, 167 mM HCl, 37° C.; format: physicochemical; settings: 167 mM HCl (pH 1), 3 hours
Protocol: Native CT and CT-conjugates were incubated at 4 μM in 167 mM HCl at 37° C. in 50 μL aliquots. Aliquots were removed at specified time points and residual activity was measured at 25° C. in 0.1 M sodium phosphate buffer (pH 8.0) with Suc-AAPF-pNA as substrate (288 μM). Each time point was measured in duplicate and residual activity was calculated as the ratio of activity remaining from time zero.

NS-AAPF-pNA = molecular target: T3, NS-AAPF-pNA (Bos taurus, UniProt P00766); test: CT and CT conjugate biocatalytic activity, 2.5 to 37.5° C.; format: biochemical
T3 construct: purchased Sigma Aldrich; host or cells: bovine pancreas
Protocol: N-succinyl-L-Ala-L-Ala-L-Pro-L-Phe-p-nitroanilide was used as a substrate for enzyme bioactivity assays. In a cuvette, 0.1 M sodium phosphate buffer (2820-2970 μL, pH 8.0), substrate (0-150 μL, 6 mg/mL in DMSO (0-500 μM)), and enzyme (30 μL, 0.1 mg enzyme/mL 0.1 M pH 8.0 sodium phosphate buffer (0.04 μM)) were mixed. The rate of the hydrolysis was determined by recording the increase in absorbance at 412 nm for the first 30 seconds after mixing. KM and kcat values were calculated using EnzFitter software when plotting substrate concentration versus initial hydrolysis velocity.
CT conjugate kinetics were examined at a variety of temperatures (2.5° C., 7° C., 16.5° C., 24.5° C., 33° C., and 37.5° C.) to determine the effect of polymer UCST and LCST phase transitions and molecular weight on enzyme kinetics (see FIGS. 11(a)-(c) and Table 16 below).

Ki (aprotinin (AP); inhibitor aprotinin): 56.3 nM
Substance: α-Chymotrypsin (CT) from bovine pancreas (type II) [Native CT]
activity lost [1]: lost half of its activity
Km (Suc-AAPF-pNA; pH 5.0, 25° C.): 184 µM
kcat (Suc-AAPF-pNA; pH 5.0, 25° C.): 2.85 s⁻¹
Km (Suc-AAPF-pNA; pH 6.0, 25° C.): 171 µM
kcat (Suc-AAPF-pNA; pH 6.0, 25° C.): 14.80 s⁻¹
Km (Suc-AAPF-pNA; pH 7.0, 25° C.): 94.3 µM
kcat (Suc-AAPF-pNA; pH 7.0, 25° C.): 26.81 s⁻¹
Km (Suc-AAPF-pNA; pH 8.0, 25° C.): 82.6 µM
kcat (Suc-AAPF-pNA; pH 8.0, 25° C.): 32.00 s⁻¹
Km (Suc-AAPF-pNA; pH 9.0, 25° C.): 123 µM
kcat (Suc-AAPF-pNA; pH 9.0, 25° C.): 33.30 s⁻¹
Km (Suc-AAPF-pNA; pH 10.0, 25° C.): 336 µM
kcat (Suc-AAPF-pNA; pH 10.0, 25° C.): 36.62 s⁻¹
Apparent Vmax (aprotinin (AP); aprotinin [I]0 0 mM): 1.13 mM/s
KM/Vmax (aprotinin (AP); aprotinin [I]0 0 mM): 76.3 s⁻¹
Apparent Vmax (aprotinin (AP); aprotinin [I]0 0.098 mM): 1.17 mM/s
KM/Vmax (aprotinin (AP); aprotinin [I]0 0.098 mM): 149.2 s⁻¹
Apparent Vmax (aprotinin (AP); aprotinin [I]0 0.196 mM): 1.14 mM/s
KM/Vmax (aprotinin (AP); aprotinin [I]0 0.196 mM): 242.8 s⁻¹
Apparent Vmax (aprotinin (AP); aprotinin [I]0 0.294 mM): 1.19 mM/s
KM/Vmax (aprotinin (AP); aprotinin [I]0 0.294 mM): 314.3 s⁻¹
Apparent Vmax (aprotinin (AP); aprotinin [I]0 0.392 mM): 1.04 mM/s
KM/Vmax (aprotinin (AP); aprotinin [I]0 0.392 mM): 431.6 s⁻¹
Apparent Vmax (aprotinin (AP); aprotinin [I]0 0.490 mM): 1.13 mM/s
KM/Vmax (aprotinin (AP); aprotinin [I]0 0.490 mM): 569.45 s⁻¹
activity maintained [2]: complete activity loss
Km (NS-AAPF-pNA; 2.5° C., 0.1 M sodium phosphate pH 8.0): 30 ± 5.1 µM
kcat (NS-AAPF-pNA; 2.5° C., pH 8.0): 8.9 ± 0.4 s⁻¹
kcat (NS-AAPF-pNA; 2.5° C., pH 8.0, listed as native chymotrypsin): 8.9 ± 0.4 s⁻¹
Km (NS-AAPF-pNA; 7° C., pH 8.0): 29 ± 6.9 µM
kcat (NS-AAPF-pNA; 7° C., pH 8.0): 9.7 ± 0.5 s⁻¹
kcat (NS-AAPF-pNA; 7° C., pH 8.0, listed as native chymotrypsin): 9.7 ± 0.5 s⁻¹
Km (NS-AAPF-pNA; 16.5° C., pH 8.0): 37 ± 8.6 µM
kcat (NS-AAPF-pNA; 16.5° C., pH 8.0): 16 ± 0.9 s⁻¹
kcat (NS-AAPF-pNA; 16.5° C., pH 8.0, listed as native chymotrypsin): 16 ± 0.9 s⁻¹
Km (NS-AAPF-pNA; 24.5° C., pH 8.0): 51 ± 8.7 µM
kcat (NS-AAPF-pNA; 24.5° C., pH 8.0): 25 ± 1.3 s⁻¹
kcat (NS-AAPF-pNA; 24.5° C., pH 8.0, listed as native chymotrypsin): 25 ± 1.3 s⁻¹
Km (NS-AAPF-pNA; 33° C., pH 8.0): 57 ± 5 µM
kcat (NS-AAPF-pNA; 33° C., pH 8.0): 36 ± 1.3 s⁻¹
kcat (NS-AAPF-pNA; 33° C., pH 8.0, listed as native chymotrypsin): 36 ± 1.3 s⁻¹
Km (NS-AAPF-pNA; 37.5° C., pH 8.0): 59 ± 6.9 µM
kcat (NS-AAPF-pNA; 37.5° C., pH 8.0): 47 ± 1.7 s⁻¹
kcat (NS-AAPF-pNA; 37.5° C., pH 8.0, listed as native chymotrypsin): 47 ± 1.7 s⁻¹
